Measured values published in paper PMC5512084.

Legend:
[1] = target: mononucleosome (calf thymus histone octamer assembled on 601 nucleosome positioning sequence DNA) (bovine (calf thymus))
[2] = target: mononucleosome (calf thymus histone octamer assembled on 601 nucleosome positioning sequence DNA) (bovine (calf thymus)); assay: native gel or EMSA; 2 nM IRDYE-labeled mononucleosome with 50 bp of linker DNA on both ends, 2-fold dilution series of CHD enzyme; EMSA buffer (20 mM Tris HCl pH 8.0, 75 mM NaCl, 5 mM MgCl2), 30 min at 25 °C, 4% native PAGE

CHD6 (from UniProt Q8TD26 1-2715) (enzyme)
Km of nucleosome-stimulated ATP hydrolysis (nucleosome concentration at half-maximal ATPase activation; mononucleosome with 50-bp linker DNA on both sides) [1]: 6 nM

CHD7 (from UniProt Q9P2D1 1-2997) (enzyme)
Km of nucleosome-stimulated ATP hydrolysis (nucleosome concentration at half-maximal ATPase activation; mononucleosome with 50-bp linker DNA on both sides) [1]: 6 nM

CHD8 (from UniProt Q9HCK8 1-2581) (enzyme)
Km of nucleosome-stimulated ATP hydrolysis (nucleosome concentration at half-maximal ATPase activation; mononucleosome with 50-bp linker DNA on both sides) [1]: 55 nM
fold affinity against the nucleosome with only one 100-bp DNA linker [2]: 2 fold
